The source of these data is US20250018053A1.

Some targets named below: Human N4 (human) (UniProt Q96NY8); Monkey N4; Mouse N4; Rat N4.
Test in all cases: flow cytometry, transfected CHO cells

Human N4 (human), sequence (Q96NY8 32-510): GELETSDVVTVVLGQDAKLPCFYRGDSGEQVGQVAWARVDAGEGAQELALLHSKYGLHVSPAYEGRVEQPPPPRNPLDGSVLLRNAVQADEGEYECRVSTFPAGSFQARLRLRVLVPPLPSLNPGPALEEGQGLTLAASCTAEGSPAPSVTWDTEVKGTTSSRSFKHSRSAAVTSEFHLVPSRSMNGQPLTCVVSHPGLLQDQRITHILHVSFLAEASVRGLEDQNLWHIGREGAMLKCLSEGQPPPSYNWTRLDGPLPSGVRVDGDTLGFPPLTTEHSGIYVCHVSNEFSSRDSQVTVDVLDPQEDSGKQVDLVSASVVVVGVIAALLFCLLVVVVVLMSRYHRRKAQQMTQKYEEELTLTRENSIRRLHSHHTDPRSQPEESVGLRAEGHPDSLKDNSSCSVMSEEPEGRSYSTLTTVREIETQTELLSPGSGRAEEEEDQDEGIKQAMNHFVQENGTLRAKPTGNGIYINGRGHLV

Regarding Enfortumab (HA22), the half-maximal effective concentration (EC50) in the assay with Human N4 (human) turned out to be 0.346 nM; with Monkey N4, 0.0678 nM; in the assay with Mouse N4, 41.1 nM; with Rat N4, 0.097 nM.
